According to patent US8859496B2, “Pharmaceutical composition using connective-tissue growth factor” (Postech Academy-Industry Foundation, priority 2010, dated 2014):
No end group written: not given here.

Columns and labels:
HUVECs [1] = test: HUVEC wound migration assay; format: cell-based, human
Protocol: Specifically, HUVECs inoculated on a 60-mm culture dish to confluence were wounded with the end of a pipette, and treated with linker polypeptide (10^−1˜10^2 nM) or recombinant CTGF (recombinant human CTGF, rhCTGF; BioVendor R&D, NC, USA) (10^1 or 10^2 nM) in Medium 199 to which 1% serum and 1 mM thymidine were added. After culturing 16 hours, the number of cells that migrated over a reference line was counted to quantify the degree of migration, and the cells were photographed with 50× magnification.
(§1) First, 20 ng/ml of VEGF-A was administered to HUVECs, the degree of cell proliferation, cell migration, or tube formation was confirmed by the <Experiment method 9>, and the results are shown in FIGS. 22 to 24. At this time, FPRL1 antagonist WRW4 was additionally added.

FPRL1 [2] = target: T1, FPRL1 (Homo sapiens, UniProt P25090); test: ERK phosphorylation in FPRL1/RBL cells (immunoblot); format: cell-based; details: FPRL1/RBL cells
T1 construct: expressed in transfected cells; host or cells: rat basophil leukemia RBL-2H3 cells, kept under G418
T1 sequence (P25090 1-351): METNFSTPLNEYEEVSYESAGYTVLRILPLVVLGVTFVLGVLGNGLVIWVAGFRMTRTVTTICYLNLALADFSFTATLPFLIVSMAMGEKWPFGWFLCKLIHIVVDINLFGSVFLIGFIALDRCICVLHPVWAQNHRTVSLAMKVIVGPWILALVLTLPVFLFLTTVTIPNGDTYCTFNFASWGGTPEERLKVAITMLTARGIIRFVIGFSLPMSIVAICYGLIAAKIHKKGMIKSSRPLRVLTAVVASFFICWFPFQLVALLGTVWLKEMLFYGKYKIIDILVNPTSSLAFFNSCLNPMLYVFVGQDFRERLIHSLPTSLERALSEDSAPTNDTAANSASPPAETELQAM
Protocol: Vector/RBL cells, FPR/RBL cells, FPRL1/RBL cells, and HUVECs were cultured to confluence, and serum-starved. The stimulated cells (1×10^5 cells) were washed with PBS twice, dissolved in 1 ml of sample buffer (50 mM Tris-HCl, 100 mM NaCl, 0.1% SDS, 1% Nonidet P-40, 50 mM NaF, 1 mM Na3VO4, 1 μg/ml aprotinin, 1 μg/ml pepstatin, and 1 μg/ml leupeptin), heated at 95° C. for 30 seconds, separated with SDS-PAGE, and then, transferred to a nitrocellulose film. Immunoblot was conducted using anti-phospho-ERK (extracellular signal regulated kinase)1/2 (Thr^202/Tyr^204)(Cell Signaling Technology, Beverly, Mass., USA), anti-ERK1/2 (Cell Signaling Technology, Beverly, Mass., USA), anti-CTGF (Abcam, Cambridge, Mass., USA), anti-Actin (Sigma, St. Louis, Mo., USA), or anti-Flag (Sigma, St. Louis, Mo., USA) antibody, and then, the film was visualized with a chemiluminescence substrate (Amersham Pharmacia).
To confirm this, the inventors obtained conditioned medium (CM) in HUVEC treated with VEGF-A, and FPRL1-overexpressing cells FPRL1/RBL were treated therewith in the concentration of 10 ng/ml or 50 ng/ml for 8 hours. At this time, as positive control, FPRL1 agonistic peptide WKYMVm (Trp-Lys-Tyr-Met-Val-D-Met, SEQ ID NO. 1) was treated with 10 nM.
After the treatment, immunoblot was conducted on cell lysate that was transferred to a nitrocellulose film with anti-phospho ERK (extracellular signal regulated kinase)1/2 and anti-ERK1/2 antibody (Cell Signaling Technology, Beverly, Mass., USA), and then, the film was visualized with a chemiluminescence substrate (Amersham Pharmacia), and the results are shown in FIG. 1.
Meanwhile, the above described vector/RBL, FPR/RBL, or FPRL1/RBL cells were respectively treated with the above conditioned medium or VEGF-A at the concentration of 10 ng/ml for 8 hours, and positive control was treated with 10 nM of agonistic peptide WKYMVm (SEQ ID NO. 1).
As described in the <Experiment method 5>, FPRL1/RBL cells were treated with 40 ug of the HPLC fraction of the conditioned medium for 5 minutes, and the result confirming whether ERK phosphorylation occurred as described in the <Experiment result 1> was shown in FIG. 3.
To confirm whether the purified proteins induce ERK phosphorylation in FPRL1/RBL cells, immunoblot was conducted as described in the <Experiment result 1>, and the results are shown in FIG. 9.
ERK phosphorylation induction of CTGF linker polypeptide was compared to recombinant human CTGF (rhCTGF). Specifically, FPRL1/RBL cells were treated with CTGF linker polypeptide and rhCTGF for 5 minutes at various concentrations, ERK phosphorylation was measured, and the results are shown in FIG. 11. […]

HUVECs [3] = test: HUVEC tube formation on Matrigel; format: cell-based, human
Protocol: Meanwhile, to analyze tube formation, HUVECs were inoculated on the previously polymerized Matrigel (BD Biosciences) layer together with a certain amount of linker polypeptide, rhCTGF or VEGF-A165. After culturing for 18 hours, the shape of the cells was observed by phase-contrast microscopy, and photographed with 40× magnification. By measuring the length of tubes 5 times in LPF (low-power fields) randomly selected from each well using image-Pro Plus v4.5 (Media Cybernetics, Silver Spring, Md.), the degree of tube formation was quantified.
as §1

FPRL1 [4] = target: T1, FPRL1; test: Intracellular Ca2+ measurement (fluo-3-AM) in FPRL1/RBL, vector/RBL or FPR/RBL cells; format: cell-based
Protocol: FPRL1/RBL, vector/RBL or FPR/RBL cells were cultured in a fluo-3-AM working solution containing 0.03% (w/v) plutonic F-127 (Molecular Probes) at 37° C. for 1 hour so that the final concentration of fluo-3-AM became 20 uM/L. After the culturing, fluo-3-AM fluorescence occurred at 488 nm with high-power Ar^+ laser in the cells, and the emission band was measured at 530 nm with photomultiplier. Fluorescence signal was detected using confocal laser scanning system (LSM 510 Meta; Carl Zeiss, Jena, Germany) equipped with Nikon E-600 Eclipse microscope. Fluorescence intensities before adding CTGF (F0) and after adding CTGF (F) were measured. Change in the intracelullar Ca^2+ concentration [Ca^2+]i was indicated by F/F0 ratio. From each cell, 50 to 120 images were scanned.
Since activation of FPRL1 increases intracellular Ca^2+ concentration, the inventors confirmed whether CTGF linker polypeptide activates FPRL1 to finally increase intracellular Ca^2+ concentration by the <Experiment method 8>, and the results are shown in FIG. 12.

Substance | migration of HUVECs (HUVECs [1]; linker polypeptide 10^-1 to 10^2 nM, 16 hours, compared to recombinant CTGF) | ERK phosphorylation compared to rhCTGF (FPRL1 [2]; 10 nM) | ERK phosphorylation compared to rhCTGF (FPRL1 [2]; various concentrations, 5 minutes) | tube formation of HUVECs (HUVECs [3]; 18 hours, compared to recombinant CTGF) | Ca2+ concentration, concentration dependence (FPRL1 [4]; FPRL1/RBL cells) | Ca2+ increasing activity compared to rhCTGF and WKYMVm (FPRL1 [4]; FPRL1/RBL cells) | Ca2+ concentration increase, cell specificity (FPRL1 [4]; confocal microscope, FPRL1/RBL, vector/RBL or FPR/RBL cells) | effect of antagonist on HUVEC migration induced by VEGF-A (HUVECs [1]; VEGF-A 20 ng/ml, WRW4 10 uM) | effect of antagonist on HUVEC migration induced by CTGF linker polypeptide (HUVECs [1]; WRW4 10 uM) | effect of antagonist on ERK phosphorylation induced by CTGF linker polypeptide or rhCTGF (FPRL1 [2]; 10 nM CTGF linker polypeptide or rhCTGF, WRW4 10 uM) | effect of antagonist on HUVEC tube formation induced by VEGF-A (HUVECs [3]; VEGF-A 20 ng/ml, WRW4 10 uM) | effect of antagonist on HUVEC tube formation induced by CTGF linker polypeptide (HUVECs [3]; WRW4 10 uM) | effect of antagonist on intracellular Ca2+ increase by CTGF linker polypeptide (FPRL1 [4]; WRW4 10 uM)
EWVCDEPKDQTVVGPALAAYRLEDTFGPDPTMIRANCLV (EWVCDEPKDQTVVGPALAAYRLEDTFGPDPTMIRANCLV-NH2; cysteine pairing not given here) [CTGF linker polypeptide] | induces migration of HUVECs in a concentration-dependent manner more effectively than recombinant CTGF | induces ERK phosphorylation to a similar level to rhCTGF | induces ERK phosphorylation to a similar level to rhCTGF | induces tube formation of HUVECs more effectively than recombinant CTGF | increases dependently upon the concentration of CTGF linker polypeptide | more effective than rhCTGF and is similar to positive control of FPRL1 agonist WKYMVm | increased only in FPRL1/RBL cells | – | – | – | – | – | –
WRWWWW (FPRL1 antagonist) [WRW4] | – | – | – | – | – | – | – | the cell migration is not induced | the cell migration is not induced | ERK phosphorylation is inhibited | the tube formation is not induced | the tube formation is not be induced | the degree of intracellular Ca^2+ concentration increase by CTGF linker polypeptide decreases
